The target in experiment [1] is Bacillus subtilis Rel N-terminal domain region (RelBs^NTD; residues 1 to 373) (Bacillus subtilis). Nature of the experiment: ITC; DarB or DarB variants in the syringe at 200 μM, RelBs^NTD or variants in the cell at 15 μM; 25°C; 50 mM Hepes pH 7.5, 500 mM KCl, 500 mM NaCl, 10 mM MgCl2, 1 mM TCEP, 0.002% mellitic acid. (In general: ITC needs no label: the signal is the heat of the interaction.)

Experiment [2] addresses RelBs^NTD Y279A (B. subtilis). The experiment in a line: ITC; DarB or DarB variant (200 uM) in the syringe titrated into RelBs^NTD or variant (15 uM) in the cell; 25 °C; 50 mM Hepes pH 7.5, 500 mM KCl, 500 mM NaCl, 10 mM MgCl2, 1 mM TCEP, 0.002% mellitic acid.
The next experiment has as its target Rel (Bacillus subtilis) (UniProt O54408). The conditions noted are these: cited from earlier work.

pKd: −log10 of the molar value.

On to “Bacillus subtilis DarB (from UniProt O31698 1-147) (natural protein)”, for which the negative logarithm of the Kd (pKd) (as a rule, −log10 of the Kd, conventionally taken in molar units) in experiment [1] is 5.85; in experiment [2], 5.40.
Take DarB (from UniProt O31698): the negative logarithm of the Kd (pKd) with Rel (Bacillus subtilis) was 6.19.

Source of the values: publication PMC9848473.
